For assay [1], the target named is T1, PRO-C6 sequence KPGVISVMGT (last 10 amino acids of the type VI collagen alpha3 chain, 3168-3177).
T1 construct: also called selection peptide; immunogenic peptide
T1 peptide: KPGVISVMGT
The experiment in a line: hybridoma clone screening with peptides.

Assay [2] addresses T2, elongated peptide KPGVISVMGTA
T2 construct: Synthetic peptide, Chinese Peptide Company
T2 peptide: KPGVISVMGTA
The experiment in a line: hybridoma clone screening with peptides.

The target of assay [3] is T3, truncated peptide KPGVISVMG
T3 construct: Synthetic peptide, American Peptide Company
T3 peptide: KPGVISVMG
Nature of the assay: hybridoma clone screening with peptides.

For assay [4], the target named is T4, Pro-C3 target sequence CPTGPQNYSP (C-terminal neo-epitope of PIIINP, residues 144-153 of the alpha1 chain) (human).
T4 construct: Synthetic peptide with free C-terminus (-COOH)
T4 peptide: CPTGPQNYSP
The experiment in a line: antibody characterization with peptides (ELISA, as previously described).

Assay [5] addresses T5, elongated peptide CPTGPQNYSPQ (human).
T5 construct: the peptide tested is printed with Pro at that position
T5 peptide: CPTGPQNYSPQ
The assay is described as above.

Assay [6] has as its target T6, non-sense peptide GSPGKDGVRG
T6 construct: Control peptide
T6 peptide: GSPGKDGVRG
Described as above.

B1: PRO-C6 monoclonal antibody 10A3 (antibody, mouse IgG1, kappa, V domains shown)
VH: EVQLQQSGPVMVKPGTSVKTSCKASGYTFTDFNMNWVKQSHGKSLEWIGAINPHNGATSYNQKFSGKATLTVDKSSSTAYMELNSLTSDDSAVYYCARWGNGKNSWGQGTTLTVSS
VL: DVVMTQTPLSLPVNLGDQASISCRSSQRIVHSNGITFLEWYLQKPGQSPKLLIYRVSNRFSGVPDRFSGSGSGTDFTLKISRVEAEDLGLYYCFQGSHVPLTFGAGTRLELKR
notes: Mouse IgG1 / kappa; also called monoclonal antibody specific for PRO-C6
With B1, the binding result in assay [1] was “binds”; in assay [2], “no binding”; in assay [3], “no binding”.

B2: Pro-C3 monoclonal antibody (monoclonal antibody NB61N-62) (antibody, mouse IgG2a, kappa, V domains shown)
VH: EVQLQQSGPEVLKPGASVKMSCKASGYTFINYVIHWLKQKAGQGPEWIGYMNPYNDVPKNNAKFRGKARLTSDRSSTTAYMELNSLTSEDSAVYYCARGGFFGPLSYWGQGTLVTVSA
VL: DVLMTQTPLSLSVSLGDQASISCRSSQNIVYSNGDTYFEWYLQKPGQSPKLLIYKVSQRFSGVPDRFSGSGSGTDFTLKISRVETEDLGVYYCFQGAHDPPAFGGGTKLELKR
For B2, the binding result is “binds” in assay [4], “no binding” in assay [5] and “no binding” in assay [6].

Values taken from EP4673749A1 (dated 2026).
